Publication PMC11142733, “IgG hexamers initiate complement-dependent acute lung injury” (The Journal of Clinical Investigation, 2024)
Read-outs that look alike come from different tables or passages of the source.

Tests used:
[1] = biological target: RGY-mutated 34-1-2S (RGY-hIgG1-34-1-2S) (mouse | human); test: negative stain electron microscopy; antibody samples diluted to 0.01 mg/mL in 25 mM HEPES and 100 mM NaCl, on carbon-coated grids, stained with 0.75% uranyl formate; monomer to hexamer in solution
[2] = biological target: T1, K^b MHC class I monomer presenting SIINFEKL (mouse | ); test: SPR
T1 chain 1: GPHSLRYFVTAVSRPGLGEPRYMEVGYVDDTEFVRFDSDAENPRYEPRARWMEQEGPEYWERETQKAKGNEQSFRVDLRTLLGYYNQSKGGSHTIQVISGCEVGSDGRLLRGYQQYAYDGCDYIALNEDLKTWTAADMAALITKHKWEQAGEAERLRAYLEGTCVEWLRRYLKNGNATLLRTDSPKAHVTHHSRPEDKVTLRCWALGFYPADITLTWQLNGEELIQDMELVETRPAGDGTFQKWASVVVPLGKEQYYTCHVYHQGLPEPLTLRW
T1 chain 2: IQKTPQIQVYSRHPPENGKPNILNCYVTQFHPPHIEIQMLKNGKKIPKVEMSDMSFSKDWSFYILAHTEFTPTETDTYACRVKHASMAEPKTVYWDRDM
T1 chain 3: SIINFEKL

[3] = biological target: T2, D^d MHC class I monomer presenting IGPGRAFYA (mouse | ); test: SPR
T2 chain 1: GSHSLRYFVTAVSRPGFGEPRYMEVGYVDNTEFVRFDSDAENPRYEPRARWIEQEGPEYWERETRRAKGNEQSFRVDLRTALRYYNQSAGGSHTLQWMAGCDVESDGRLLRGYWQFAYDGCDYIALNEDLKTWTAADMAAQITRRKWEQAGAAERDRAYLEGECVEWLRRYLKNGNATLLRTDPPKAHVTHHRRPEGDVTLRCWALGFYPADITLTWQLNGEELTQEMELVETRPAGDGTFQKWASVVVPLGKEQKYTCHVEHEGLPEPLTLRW
T2 chain 2: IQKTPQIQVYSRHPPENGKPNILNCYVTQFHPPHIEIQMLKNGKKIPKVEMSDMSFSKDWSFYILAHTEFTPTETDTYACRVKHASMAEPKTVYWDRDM
T2 chain 3: IGPGRAFYA

[4] = biological target: T3, K^d MHC class I monomer presenting VYLKTNVFL (mouse | ); test: SPR
T3 chain 1: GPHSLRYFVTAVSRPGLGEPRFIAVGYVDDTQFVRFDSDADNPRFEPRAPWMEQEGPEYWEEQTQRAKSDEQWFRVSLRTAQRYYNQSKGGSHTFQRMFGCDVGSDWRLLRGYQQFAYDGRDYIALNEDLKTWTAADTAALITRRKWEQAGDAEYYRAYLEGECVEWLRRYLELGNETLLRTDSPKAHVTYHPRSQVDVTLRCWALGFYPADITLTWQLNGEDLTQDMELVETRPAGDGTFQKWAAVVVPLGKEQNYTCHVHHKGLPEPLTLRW
T3 chain 2: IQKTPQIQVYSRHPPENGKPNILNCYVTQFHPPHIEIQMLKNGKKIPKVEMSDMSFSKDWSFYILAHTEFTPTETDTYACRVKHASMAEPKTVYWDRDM
T3 chain 3: VYLKTNVFL

[5] = biological target: T4, K^d MHC class I monomer presenting … (Mus musculus, H-2d haplotype (H-2Kd), UniProt P01902;P01887); test: SPR; mAbs bound via amine coupling to SensEye G Easy2Spot sensors; serial dilutions (0.5–200 nM) of MHC class I monomers injected; in triplicate; IBIS MX96 SPR imager; conditions: both partners purified
T4 construct: mouse MHC class I heavy chain H-2K^d of the bought monomer; beta-2-microglobulin of the bought monomer; presented peptide; Soluble monomer from a supplier

[6] = biological target: T5, K^b MHC class I monomer presenting SIINFEKL (Mus musculus, H-2b haplotype (H-2Kb), UniProt P01901;P01887); test: as above; conditions: both partners purified
T5 construct: mouse MHC class I heavy chain H-2K^b of the bought monomer; beta-2-microglobulin of the bought monomer; presented peptide; Soluble monomer from a supplier; also called K^b MHC class I antigen from H2^b mice; copies: + +

[7] = biological target: T6, D^b MHC class I monomer presenting … (Mus musculus, H-2b haplotype (H-2Db), UniProt P01899;P01887); test: as above; conditions: both partners purified
T6 construct: mouse MHC class I heavy chain H-2D^b of the bought monomer; beta-2-microglobulin of the bought monomer; presented peptide; Soluble monomer from a supplier; copies: + +

[8] = biological target: T4, K^d MHC class I monomer presenting …

B1: RGY-mutated 34-1-2S (RGY-hIgG1-34-1-2S) (antibody, V domains shown)
VH: EVQLQQSGAEFVRPGASVKLSCTASGFNLKDDYMFWVKQRPEQGLEWIGWIAPDNGDTEYASKFQGKATITADTSSNTAYVQLSSLTSEDTAVYYCTTWGYYSYVNYWGQGTTLTVSS
VL: DIQMTQSPSSLSASLGERVSLTCRASQDIGSNLNWLQQEPDGTIKRLIYATYSLDSGVPKRFSGSRSGSDYSLTISSLESEDFVDYYCLQYASSPYTFGGGTKLEIK
In the case of B1, the stoichiometry N [1] is reported as 6.

B2: MHC class I alloantibody 34-1-2S (mouse IgG2a) (antibody, V domains shown)
VH: EVQLQQSGAEFVRPGASVKLSCTASGFNLKDDYMFWVKQRPEQGLEWIGWIAPDNGDTEYASKFQGKATITADTSSNTAYVQLSSLTSEDTAVYYCTTWGYYSYVNYWGQGTTLTVSS
VL: DIQMTQSPSSLSASLGERVSLTCRASQDIGSNLNWLQQEPDGTIKRLIYATYSLDSGVPKRFSGSRSGSDYSLTISSLESEDFVDYYCLQYASSPYTFGGGTKLEIK
notes: heavy-chain variable region of 34-1-2S; mouse IgG2a heavy-chain constant region; light chain variable region of 34-1-2S; light-chain constant region of the mouse antibody; Mouse IgG2a; also called anti-MHC class I clone 34-1-2S; control 34-1-2S; source: bought: Bio X Cell, catalog no; BE0180
Work on B2 yielded a Kd [2] of 2490 nM, a Kd [3] of 30 nM and a Kd [4] of 9.1 nM. B2: binds [5]; binds [6]; no binding (tested: 0.5–200 nM) [7].

B3: Kd1 (antibody, V domains shown)
VH: EVLLVESGGDLVKPGGSLKLSCAASGFTFRTYAMSWVRQTPEKRLEWVATIGDDGSYTFYPDNVKGRFTISRDNAKNNLYLQMRHLKSEDTAIYFCARDGLFAYWGQGTLVTVSA
VL: DIQMTQSPSSLSASLGGKVTITCKASQDIKKNIAWYQYKPGKGPRLLIHYTSTLQPGISSRFSGSGSGRDYSFSISNLEPEDIATYYCLQYDSLLYTFGGGTKLEIK
B3: binds [8].
